Experimental data: the RNAGym collection of RNA variant scans (doi:10.7554/elife.80360)

B1: CPEB3 Ribozyme (parent)
chain: GGGGGCCACAGCAGAAGCGUUCACGUCGCGGCCCCUGUCAGAUUCUGGUGAAUCUGCGAAUUCUGCUGU

Variants of: B1
Assay: self-cleavage, relative activity (ratio to wild type); higher = more cleavage; co-transcriptional

Variant	self-cleavage
C24U G31C	0.0935
G25C C35G	0.124
C24U U49A	0.865
C24U U49C	0.84
C24U C63A	0.391
C24U C63U	0.719
C24U A40C	0.228
G25A G28U	0.132
G25A G28A	0.131
G25A G48C	0.218
G25C C29A	0.143
G25C A60U	0.114
C24G A51U	0.353
G25C C63G	0.176
G25C C63A	0.235
C24G U64A	0.325
G25C U26C	0.319
G25C U26G	0.176
G25C U26A	0.252
G25C C33G	0.235
C24U U53A	0.64
C24U U53G	0.482
C24U U64G	0.466
G25A A40G	0.172

Variant	self-cleavage
C24U A42C	0.673
C24U C27A	0.229
C24U A59U	0.414
G25C U43A	0.139
C24U G47C	0.915
C24U U46G	0.879
C24U G58A	0.516
G25A U61A	0.173
C24G G41U	0.207
C24G G41A	0.247
G25A G41A	0.174
C24G G48C	0.449
C24G G48A	0.554
C24G G25U	0.104
C24G G68C	0.578
C24U G68A	0.919
C24G G47C	0.502
G25C G31A	0.217
G25C U49C	0.185
G25A U44C	0.0881
C24U U62G	0.386
G25A C66G	0.223
G25C G48C	0.147
G25A A51C	0.209

Variant	self-cleavage
G25C U53A	0.125
C24G C35A	0.167
C24U U67A	0.862
C24G G65U	0.243
C24G G65C	0.242
C24G U44G	0.308
C24G C29U	0.0935
C24G C29G	0.194
C24U C57A	0.309
C24U C39G	0.619
C24U C39U	0.549
C24U C39A	0.315
G25C U36A	0.201
G25C U36C	0.24
G25A U67A	0.21
C24G G37U	0.278
G25A A60C	0.142
C24G U43G	0.249
C24U A51U	0.785
C24U A51G	0.774
C24G C33G	0.201
C24G C33A	0.206
G25C G37U	0.156
C24G G58U	0.387

Variant	self-cleavage
G25C C34U	0.219
C24G U69A	0.509
C24G U69G	0.63
G25A C57G	0.129
C24U C54G	0.586
C24G C54U	0.602
G25C G65A	0.216
C24U C35G	0.202
C24U C35A	0.17
G25A U69G	0.327
G25C G41U	0.144
G25C A51U	0.152
C24G U55C	0.292
G25C U44C	0.144
G25C U44G	0.139
C24G U49A	0.59
C24G U49G	0.565
C24G U67G	0.508
C24G U67C	0.522
G25C C57U	0.143
G25C C57G	0.141
C24G A60G	0.264
C24G G28C	0.224
C24G G28U	0.13

Variant	self-cleavage
G25A G65U	0.134
G25A G65C	0.178
C24G C66U	0.502
G25A G56A	0.154
G25A G56C	0.213
C24U U38G	0.166
G25C C45A	0.204
C24G U62C	0.148
C24U G37A	0.167
C24U G37C	0.223
G25C C32U	0.179
C24G G56C	0.245
G25A U46G	0.174
C24G A52U	0.409
C24G A52C	0.391
C24U G65C	0.353
G25A U26A	0.186
C24U A60U	0.299
C24U A60G	0.464
C24U U55A	0.651
C24U U55C	0.391
C24U U55G	0.367
C24U G41C	0.303
C24U U36C	0.37

Variant	self-cleavage
C24U U36A	0.181
C24U U26G	0.448
C24U U26C	0.626
C24U U26A	0.257
C24U G30C	0.152
G25A G47C	0.217
G25A G47U	0.198
G25C G28C	0.153
C24G U26A	0.206
C24G U26G	0.344
C24U G28C	0.191
C24U G28U	0.214
C24U G28A	0.174
C24U C32U	0.805
G25C U46C	0.218
G25C G58U	0.134
G25C G58A	0.212
G25A U49A	0.155
C24G U38A	0.177
C24G C39G	0.324
C24G C39A	0.214
G25A C35A	0.21
G25A U62G	0.16
G25A C45G	0.142

Variant	self-cleavage
G25A C45U	0.132
C24U G50U	0.852
C24U G25U	0.146
G25C G56C	0.164
G25C G56U	0.256
G25A U55A	0.222
C24U A52G	0.819
C24U A52U	0.81
C24G G31U	0.215
C24U C45U	0.829
G25A C63G	0.185
G25A C63A	0.104
G25C C27A	0.146
G25C G50C	0.179
C24U U69C	1.02
G25A C54U	0.248
G25A C32A	0.22
C24G C32A	0.224
G25A G50C	0.28
G25A G50U	0.267
G25A G50A	0.195
G25A G30U	0.209
G25A C34G	0.19
